Assays:
Test in all cases: pull-down binding Z-score (relative to library population); higher = stronger binding
[1] = system: TO-N3-2 (biotin conjugate); details: RNA library: Library-2
Method in brief: (§1)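 Biotin-conjugated small molecule (100 pmol) on streptavidin beads was incubated with 1 μg of heat-folded Cy5- or Cy3-end-labelled RNA library in phosphate/NaCl/KCl buffer at 25 °C for 60 min. Following three washes, RNA was eluted with hot SDS and hybridised at 55.5 °C for 20 h to a DNA barcode microarray. The binding value is a Z-score computed from the library mean and standard deviation, after subtraction of beads without compound and averaging of barcoded replicate probes with the highest and lowest excluded.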

[2] = system: TO-3-N3 (biotin conjugate); details: RNA library: Library-2
Method in brief: as §1

[3] = system: G-clamp-N3 (biotin conjugate); details: RNA library: Library-1 (pre-miRNA loops + repeats)
Method in brief: as §1

[4] = system: TO-N3 (biotin conjugate); details: RNA library: Library-2
Method in brief: as §1

[5] = system: TO-3-N3-2 (biotin conjugate); details: RNA library: Library-2
Method in brief: as §1

Sequence | pull-down binding Z-score [1] | pull-down binding Z-score [2] | pull-down binding Z-score [3] | pull-down binding Z-score [4] | pull-down binding Z-score [5]
GCAGGGACCCCUCCAAGUUGGGGACGGCAGC [hsa-mir-6858] | 1.09 | 0.172 | -0.0891 | 0.676 | 0.0497
GCAGGUAGCUUUUUGAGAUCUACUGC [hsa-mir-106a] | -0.248 | -0.704 | 0.281 | -0.711 | -0.00277
GCAGUCCUGUGGGAAUGAGAGAUGCCAAACUGGACCUGC [hsa-mir-3972] | 1.38 | 0.53 | 1.52 | 1.4 | 0.373
GCAGUCUGCUUUGUGCCAACACUGGGGUGAUGACUGC [hsa-mir-3157] | 0.186 | 0.502 | 1.23 | 0.442 | -0.203
GCAGUGUCGUGGUCACAGCUUGCUGC [hsa-mir-1273h] | 1.12 | -0.396 | 1.45 | -0.0941 | -0.171
GCAUAAAAACAACUUUUGGGGGACAGGUAUGUUUUCUUGC [hsa-mir-5047] | 0.797 | 2.96 | 0.0757 | 2.3 | 2.38
GCAUAUAGAGUAUAUGC [hsa-mir-4657] | -0.526 | -0.323 | 0.625 | -0.435 | 0.0599
GCAUCCAGACAGCGGGCGAAUGC [hsa-mir-6836] | 1.13 | -0.0821 | 0.0557 | 0.33 | -0.113
GCAUCCUUGGAAUCUGCACUCAAGGGAUGC [hsa-mir-5089] | 0.0295 | 0.451 | 0.605 | 0.358 | -0.0765
GCAUGCCC [hsa-mir-1178] | 0.552 | 0.196 | -0.547 | 0.287 | 0.000996
GCAUGGGGCUAGGAGGCCCCGCGC [hsa-mir-6825] | 0.142 | 0.451 | -0.292 | 0.391 | 0.00553
GCAUUUUAUCUAAGAUACACACAAAGCAAAUGC [hsa-mir-4439] | -0.81 | 0.441 | -1.12 | 0.118 | 0.179
GCCACAUGAGCUGGGCCUCGUGGGC [hsa-mir-770] | 0.565 | 0.237 | -0.657 | 0.189 | -0.342
GCCAGACAUGCUCUUGC [hsa-mir-6894] | 0.707 | -0.504 | -1.34 | -0.472 | -0.349
GCCAGAUGCUGAGCGAUGGC [hsa-mir-4730] | 0.603 | -0.32 | 0.503 | -0.217 | -0.12
GCCAGCAACCUGAUUACCCCUCUUUGGC [hsa-mir-6851] | 0.533 | -0.53 | -0.819 | -0.552 | -0.495
GCCAGUCAGCGCUCACAUUAAGGCUGAC [hsa-mir-2277] | 0.0682 | -0.289 | -0.612 | -0.222 | -0.0851
GCCAGUGUGUAAAAUGAGAACUGAUA [hsa-mir-3074] | 1.66 | 0.677 | 0.474 | 1.14 | 0.757
GCCAGUGUUCAAGGGCCCCUCCUCUAGUACUCCCUGUUUGUGUUCUGCCACUGA [hsa-mir-6857] | 1.37 | 0.324 | -0.797 | 1.1 | 0.527
GCCAUCUGGUUGUGACAUCACUGAUGGC [hsa-mir-7155] | 0.128 | 1.09 | -0.231 | 0.932 | 0.0839
GCCAUGGAAAGUAAUGGC [hsa-mir-548ax] | 0.319 | -0.0453 | 0.538 | -0.269 | -0.112
GCCCCAGGGCAGGGGC [hsa-mir-4515] | -0.972 | -0.247 | 1.01 | -0.583 | -0.473
GCCCGCUGUGUUCACUCGGGC [hsa-mir-602] | -0.52 | -0.169 | 0.773 | -0.398 | -0.556
GCCCGGGCACCGCCCCUU [hsa-mir-718] | 0.973 | -0.0729 | -1.53 | 0.203 | -0.109
GCCCUGGGCCGGGCGAUGUCCGCUUGGGGG [hsa-mir-6090] | 1.41 | 0.811 | -0.223 | 1.11 | 0.149

Sequence | pull-down binding Z-score [1] | pull-down binding Z-score [2] | pull-down binding Z-score [3] | pull-down binding Z-score [4] | pull-down binding Z-score [5]
GCCGCGGAAGAAGGGGAAGCGC [hsa-mir-6720] | 1.86 | 1.46 | 2.21 | 1.61 | 0.61
GCCGGAGCGGGC [hsa-mir-1181] | 0.58 | 0.493 | 1.74 | 0.703 | 0.0808
GCCGGGGCCUGGCGCUCCUCUACCUUGUCAGGUGACCCAGC [hsa-mir-4274] | 0.434 | 0.564 | -1.05 | 0.538 | -0.179
GCCUCCUGGAUCUCUAGGUCUCAGGGC [hsa-mir-6744] | 0.118 | -0.282 | -0.189 | -0.272 | -0.302
GCCUCGCUUCCUGCCGGCGCGGC [hsa-mir-1538] | 0.147 | -0.255 | -0.287 | -0.389 | -0.601
GCCUCUCUGAGCAUGCAUUCCUGAGACUC [hsa-mir-5695] | 0.547 | 0.286 | -1.38 | 0.481 | 0.0721
GCCUCUUCUCCAUGAGAGGC [hsa-mir-885] | -1.37 | -0.689 | 1.74 | -1.07 | -0.322
GCCUGCCCUGAGUCCCCCAGCAGGU [hsa-mir-3907] | 0.912 | 1.45 | -0.55 | 1.46 | 0.663
GCCUGCGGGCAGGAAGCGGA [hsa-mir-3928] | 2.23 | 1.57 | -0.0318 | 1.87 | 1.34
GCCUGUGUAGACGGGGACCUGCCCUGCAUGGGCACCCCCUCACUGGC [hsa-mir-6762] | 0.347 | 0.332 | -0.617 | 0.173 | 0.322
GCCUUGUGGCAUGGAGUUCAAGC [hsa-mir-107] | 1.54 | 0.468 | 0.5 | 0.851 | 0.0909
GCCUUGUUGCAUAUGGAUCAAGC [hsa-mir-103a-1] | 0.388 | -0.346 | 0.266 | -0.178 | -0.376
GCCUUUCAACAUAAUGGC [hsa-mir-548w] | -0.827 | -0.0045 | 1.21 | -0.352 | -0.214
GCGCGGGAAAGUUCGGGAACGCGCG [hsa-mir-4479] | 1.72 | 0.386 | 0.488 | 0.854 | 0.246
GCGGCCGCGCUGGCCGCU [hsa-mir-3665] | 0.524 | -0.0786 | 1.02 | -0.0622 | -0.548
GCGGCUGUUAAUGAUUUUAACAGUUGC [hsa-mir-449c] | -1.2 | -0.84 | 0.888 | -1.14 | -0.119
GCGGGAGCCAGGCCGC [hsa-mir-3185] | 0.896 | -0.123 | 3.26 | -0.0208 | 0.0586
GCGGGGAACGAGGCCGUCGGCCAUUUUGUG [hsa-mir-632] | 1.58 | 1.2 | 1.04 | 1.59 | 0.912
GCGGGGGUGGGGGCCUCGCCCUGCUUGGGCCCUCCCUGAC [hsa-mir-6821] | 2.31 | 2.12 | 0.419 | 2.47 | 1.75
GCGGGGUGUGGUGGGGCUGGGGCUGGCCCCCUCCUCACACCUC [hsa-mir-6800] | 3.96 | 4.74 | 1.21 | 4.29 | 5.35
GCGGUUUUUGCCAUUACUUUUCAUUUUUACCAUUAAAAGUAAUGGCAAAAAGCAU [hsa-mir-548q] | -0.56 | -0.964 | -0.112 | -1.09 | 0.225
GCGGUUUUUGCUAUUGGUUUUAAUGGC [hsa-mir-548au] | -0.183 | -0.185 | -0.139 | -0.205 | -0.189
GCGUCACGUGCACCCAAGUGACGC [hsa-mir-6786] | 0.796 | 0.576 | -0.196 | 0.688 | 0.171
GCGUCGCUUCUCCCUAAUGUUGCC [hsa-mir-6781] | 0.502 | -0.385 | -0.106 | -0.068 | 0.089
GCUAACUGUGACCUUAGC [hsa-mir-4729] | -0.478 | 0.00513 | -0.373 | -0.187 | -0.181

Sequence | pull-down binding Z-score [1] | pull-down binding Z-score [2] | pull-down binding Z-score [3] | pull-down binding Z-score [4] | pull-down binding Z-score [5]
GCUACUGUCUGCACCUGUCACUAGCAGU [hsa-mir-130a] | 1.58 | -0.279 | -1.49 | 1.12 | -0.0477
GCUAGUGCUGGCUCAAUGCAAUGC [hsa-mir-502] | 0.637 | -0.322 | -0.151 | -0.0527 | -0.0546
GCUCAAGCCACAGCAGGGUGUUUAGCGCUCUUCAGUGGCUCCAG [hsa-mir-1203] | 1.14 | -0.00832 | -1.23 | 0.563 | -0.102
GCUCCCAACCAACCACUUCCACAUGUUUUGCUGGU [hsa-mir-4451] | 0.308 | 0.136 | -1.34 | 0.244 | 0.239
GCUCUAAUAAUUUAUUCUAAUAAUAAUUUAGAUC [hsa-mir-7976] | -1.31 | -0.976 | -0.269 | -1.19 | -0.379
GCUCUGGGGAUUUGGUCUCACAGC [hsa-mir-3940] | -0.339 | -0.54 | 0.507 | -0.497 | -0.38
GCUGAAACACAGUUGGUUUGUGUACACUGGC [hsa-mir-24-2] | -0.00258 | -0.415 | 0.212 | -0.193 | -0.521
GCUGAACCCCUGCCCCUGGAGCCCCCAGCAGGGCCCUC [hsa-mir-7162] | 1.85 | 0.665 | -1.32 | 1.34 | 0.612
GCUGAGCCCUUUGAUAAGGGGGAGGUU [hsa-mir-8080] | 0.545 | 0.21 | -0.454 | 0.361 | -0.219
GCUGAGGUUGCGUUGACGCUCGC [hsa-mir-1292] | 1.17 | 0.0445 | 0.447 | 0.384 | -0.0926
GCUGCACUGUCUCCGUCUGCGG [hsa-mir-4519] | 1.43 | -0.24 | -0.081 | 0.595 | 0.0588
GCUGCAGAUCUUUGUCUAAGCAGC [hsa-mir-4498] | -0.274 | -0.346 | -0.879 | -0.555 | -0.207
GCUGCAGGCAAAGCUGGGG [hsa-mir-711] | 1.07 | 0.431 | -0.426 | 0.901 | 0.123
GCUGCCAGGAAAUCCCUAUUUCAUAUAAGAGGGGGCUGGCUGGUUGC [hsa-mir-448] | 0.355 | 0.185 | 1.08 | 0.447 | 0.236
GCUGCCAUCUCCCACUGGCUGC [hsa-mir-4736] | 0.0852 | -0.569 | -0.492 | -0.536 | -0.495
GCUGCCCCUUUGCUCUCUGGGGUAGC [hsa-mir-3614] | -0.388 | 0.491 | 0.721 | 0.258 | 0.0223
GCUGCUGCCCCAGAGGCCCAGCAGGUGUCCAGAAC [hsa-mir-6750] | 1.93 | 0.55 | -0.884 | 1.18 | 0.49
GCUGCUGGUGCUCAUCUCAGC [hsa-mir-6877] | 0.602 | 0.71 | -0.152 | 0.825 | -0.0239
GCUGCUUGCACUCGUUCAGC [hsa-mir-3661] | 0.863 | -0.0975 | 0.0999 | 0.1 | -0.246
GCUGGAGUAAGGGCACGCCCGGGGCUGC [hsa-mir-4758] | 1.79 | 0.802 | 1.11 | 1.51 | 0.383
GCUGGAUUUCCCAGCUUGACUCUAAC [hsa-mir-200a] | -0.215 | -0.14 | -0.177 | -0.337 | -0.242
GCUGGGCUGAGCUAACCAGGGCUGGGCUGAGC [hsa-mir-4537] | 1.42 | 0.138 | 0.991 | 0.532 | -0.0332
GCUGGGGACUGGAGAA [hsa-mir-4489] | 1.64 | 2.13 | 2.08 | 2.4 | 1.32
GCUGGGGCGCGGGCUUUCGCUUUCAGUCGAGGGCUAGCGAGCGCAGC [hsa-mir-7846] | 1.12 | 0.914 | 1.79 | 1.12 | 0.105
